Reference: publication PMC3362647
pKd: −log10 of the molar value.

Test system: GST-p180-Lys (p180 lysine-rich region)
Assay: EMSA
Settings: PBS with 10 ug/ml denatured yeast tRNA, room temperature, 20 min; native 10% PAGE (19:1) in TBE; pH not stated

## human insulin SSCR RNA
  pKd: 6.10
